± gives the uncertainty stated by the source.
Assay: self-splicing fitness, log relative to wild type (ln ratio); higher = more splicing; Tetrahymena group I intron in knt gene, E. coli kanamycin selection, DiMSum; sequences stand for … in CUCUCU…GGAGGGAAAAGUUAUCAGGCAUGCACCUGGUAGCUAGUCUUUAAACCAAUAGAUUGCAUCGGUUUAAAAGGCAAGACCGUCAAAUUGCGGGAAAGGGGUCAACAGCCGUUCAGUACCAAGUCUCAGGGGAAACUUUGAGAUGGCCUUGCAAAGGGUAUGGUAAUAAGCUGACGGACAUGGUCCUAACCACGCAGCCAAGUCCUAAGUCAACAGAUCUUCUGUUGAUAUGGAUGCAGUUCACAGACUAAAUGUCGGUCGGGGAAGAUGUAUUCUUCUCAUAAGAUAUAGUCGGACCUCUCCUUAAUGGGAGCUAGCGGAUGAAGUGAUGCAACACUGGAGCCGCUGGGAACUAAUUUGUAUGCGAAAGUAUAUUGAUUAGUUUUGGAGUACUCGUGGUCG
How it was run: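 A randomised library covering all eight P1ex-region intron nucleotides was built with the intron in the knt kanamycin-resistance gene on pET-22b(+) and held in E. coli BL21(DE3). Cells were grown overnight at 37°C or 30°C on LB agar, with or without 25 μg/mL kanamycin, plus 100 μg/mL carbenicillin, 50 μM IPTG and 0.2% rhamnose, and pooled colonies were amplicon-sequenced on an Illumina HiSeq 2500. DiMSum fitness is the error-weighted combination of wild-type-normalised replicate fold changes, kanamycin versus none.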

Sequence | self-splicing fitness (ln) (30 °C) | self-splicing fitness (ln) (37 °C)
GUAGAGCAAUAUUACGGGAG | -3.15 ± 0.47 | -1.85 ± 0.38
CCAGAGCAAUAUUACGGGGG | -3.72 ± 0.46 | -2.44 ± 0.31
CUCGAGCAAUAUUACGCCGC |  | -2.12 ± 0.4
CAUUAGCAAUAUUACGCUUG | -2.46 ± 0.2 | -2.6 ± 0.2
UGCCAGCAAUAUUACGGCUU | -0.887 ± 0.098 | -0.247 ± 0.11
GUCCAGCAAUAUUACGUAGC | -0.399 ± 0.062 | -0.149 ± 0.075
CAUUAGCAAUAUUACGCGUA | -1.76 ± 0.22 | -1.2 ± 0.18
CCGUAGCAAUAUUACGUCGC | -3.45 ± 0.41 | -1.77 ± 0.26
CGACAGCAAUAUUACGUUGG | -2.92 ± 0.1 | -1.54 ± 0.1
UCGUAGCAAUAUUACGCUUA |  | -1.1 ± 0.47
CUCCAGCAAUAUUACGGGGG | -3.56 ± 0.16 | -2.89 ± 0.19
UCCUAGCAAUAUUACGCGAC | -3.46 ± 0.32 | -1.49 ± 0.31
AUGCAGCAAUAUUACGUCGA | -1.61 ± 0.09 | -0.738 ± 0.11
CGCCAGCAAUAUUACGUACU | -2.58 ± 0.16 | -2.02 ± 0.2
CACAAGCAAUAUUACGUGCC | -3.26 ± 0.14 | -2.48 ± 0.14
CAGCAGCAAUAUUACGCUAA | -2.47 ± 0.2 | -1.72 ± 0.13
CAGAAGCAAUAUUACGCAGA | -2.59 ± 0.22 | -2.55 ± 0.28

Sequence | self-splicing fitness (ln) (30 °C) | self-splicing fitness (ln) (37 °C)
GAACAGCAAUAUUACGACCG | -1.25 ± 0.14 | -0.315 ± 0.17
UGAUAGCAAUAUUACGCCGA | -2.91 ± 0.32 | -1.28 ± 0.18
ACCCAGCAAUAUUACGCAUA | -1.19 ± 0.061 | -1.07 ± 0.066
GCCGAGCAAUAUUACGUCGG | -4.39 ± 0.46 | 
AGUAAGCAAUAUUACGUUAU | -3.25 ± 0.23 | -2.18 ± 0.18
GUCCAGCAAUAUUACGUAAA | -0.484 ± 0.081 | 0.338 ± 0.12
ACCGAGCAAUAUUACGGAAA | -2.92 ± 0.12 | -2.5 ± 0.12
UAUUAGCAAUAUUACGCCGA | -2.3 ± 0.31 | -0.195 ± 0.28
CUCUAGCAAUAUUACGGUGA | -3.56 ± 0.21 | -1.8 ± 0.2
ACCCAGCAAUAUUACGACGU | -0.291 ± 0.055 | 0.39 ± 0.071
UCGAAGCAAUAUUACGGGGU | -4.05 ± 0.21 | -2.25 ± 0.17
CCAUAGCAAUAUUACGAGGA | -2.97 ± 0.25 | -2.05 ± 0.25
UUAAAGCAAUAUUACGAAAU | -3.49 ± 0.3 | -2.12 ± 0.24
CCCUAGCAAUAUUACGAAAA | -2.83 ± 0.2 | -3.22 ± 0.27
AAUUAGCAAUAUUACGAACU | 0.296 ± 0.1 | 0.321 ± 0.14
CUCAAGCAAUAUUACGCGGG | -3.15 ± 0.25 | -2.42 ± 0.25
AUGAAGCAAUAUUACGCCGA | -0.724 ± 0.11 | -0.149 ± 0.15

From the supplement of paper PMC7877785
